The record followed here is patent publication US20230272073A1.

Test [1] deals with membrane-bound IGHV3-21/IGLV3-21^R110 BCR on murine TKO cells (human). The test can be described thus: flow cytometry dot plot, cell mix A (1:1 IGHV3-21/IGLV3-21^R110 BCR TKO cells and BCR-negative TKO cells), 2 µg/ml anti-human IgM-PE. A general note: In flow cytometry, cells or beads pass a laser one at a time.
The target of test [2] is IGHV3-21/IGLV3-21^G110 BCR on murine TKO cells (human) (UniProt P01871). The test can be described thus: flow cytometry dot plot, cell mix B (1:1 IGHV3-21/IGLV3-21^G110 BCR TKO cells and BCR-negative TKO cells), 2 µg/ml anti-human IgM-PE.
Sequence of IGHV3-21/IGLV3-21^G110 BCR on murine TKO cells (human) (P01871 other isoform, or with tags, fused parts or gaps, chain 1 of 2): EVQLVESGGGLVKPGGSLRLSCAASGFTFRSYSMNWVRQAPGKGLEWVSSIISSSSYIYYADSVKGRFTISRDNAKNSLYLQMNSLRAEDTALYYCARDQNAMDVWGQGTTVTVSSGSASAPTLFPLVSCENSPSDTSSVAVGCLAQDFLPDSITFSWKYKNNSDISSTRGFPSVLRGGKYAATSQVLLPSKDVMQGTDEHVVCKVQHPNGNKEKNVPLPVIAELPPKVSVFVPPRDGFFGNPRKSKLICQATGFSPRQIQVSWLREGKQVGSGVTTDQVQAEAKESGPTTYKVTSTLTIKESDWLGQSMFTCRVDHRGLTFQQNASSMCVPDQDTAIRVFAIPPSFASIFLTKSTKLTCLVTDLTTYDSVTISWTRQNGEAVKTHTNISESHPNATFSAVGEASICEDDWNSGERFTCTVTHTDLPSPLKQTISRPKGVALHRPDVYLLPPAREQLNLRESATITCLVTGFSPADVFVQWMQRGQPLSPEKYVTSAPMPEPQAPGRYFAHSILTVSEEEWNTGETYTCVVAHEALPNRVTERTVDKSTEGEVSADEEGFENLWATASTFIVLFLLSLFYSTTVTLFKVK
Sequence of IGHV3-21/IGLV3-21^G110 BCR on murine TKO cells (human) (light, as listed by the source, chain 2 of 2): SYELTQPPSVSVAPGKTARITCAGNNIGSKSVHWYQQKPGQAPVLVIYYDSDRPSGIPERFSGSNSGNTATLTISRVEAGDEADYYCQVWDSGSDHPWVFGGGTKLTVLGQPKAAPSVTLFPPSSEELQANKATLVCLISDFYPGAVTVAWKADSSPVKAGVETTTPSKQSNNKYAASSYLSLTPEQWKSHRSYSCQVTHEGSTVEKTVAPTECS

Sequence of membrane-bound IGHV3-21/IGLV3-21^R110 BCR on murine TKO cells (human) (P01871 other isoform, or with tags, fused parts or gaps, chain 1 of 2): as the sequence (P01871 other isoform, or with tags, fused parts or gaps, chain 1 of 2) above
Sequence of membrane-bound IGHV3-21/IGLV3-21^R110 BCR on murine TKO cells (human) (light, as listed by the source, chain 2 of 2): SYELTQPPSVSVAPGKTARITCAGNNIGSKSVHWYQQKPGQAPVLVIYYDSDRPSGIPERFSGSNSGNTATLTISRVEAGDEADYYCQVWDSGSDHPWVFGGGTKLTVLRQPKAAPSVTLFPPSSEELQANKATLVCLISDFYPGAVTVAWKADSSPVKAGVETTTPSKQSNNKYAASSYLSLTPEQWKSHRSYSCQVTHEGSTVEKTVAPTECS

As for “Anti-human IgM-PE, Clone: MHM-88, BioLegend Cat-No.: 314508 (antibody)”, the results for the share of gated cells (P1) in quadrant Q1 (anti-IgM-PE positive, mAb01-01-APC negative) in test [1] and in test [2] were 2.78% and 42.2%, respectively. The share of gated cells (P1) in quadrant Q2 (anti-IgM-PE positive, mAb01-01-APC positive) was 45.5% in test [1] and 1.11% in test [2].
